According to patent US20230190867A1 (BIOINCEPT, published 2023):
No end group written: not given here.

Assays:
Test in all cases: PIF-agarose affinity extraction, liver lysate column of Table 4
14-3-3 protein eta = target: T1, 14-3-3 protein eta (human, UniProt Q04917 2-246)
T1 sequence (looked up): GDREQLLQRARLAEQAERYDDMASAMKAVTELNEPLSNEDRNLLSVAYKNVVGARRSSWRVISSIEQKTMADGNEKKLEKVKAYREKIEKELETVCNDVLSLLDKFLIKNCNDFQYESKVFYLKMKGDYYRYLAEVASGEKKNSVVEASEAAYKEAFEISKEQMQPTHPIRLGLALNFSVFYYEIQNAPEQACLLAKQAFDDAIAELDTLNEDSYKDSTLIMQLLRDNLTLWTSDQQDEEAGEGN

14-3-3 protein gamma = target: T2, 14-3-3 protein gamma (human, UniProt P61981 1-247)
T2 sequence (looked up): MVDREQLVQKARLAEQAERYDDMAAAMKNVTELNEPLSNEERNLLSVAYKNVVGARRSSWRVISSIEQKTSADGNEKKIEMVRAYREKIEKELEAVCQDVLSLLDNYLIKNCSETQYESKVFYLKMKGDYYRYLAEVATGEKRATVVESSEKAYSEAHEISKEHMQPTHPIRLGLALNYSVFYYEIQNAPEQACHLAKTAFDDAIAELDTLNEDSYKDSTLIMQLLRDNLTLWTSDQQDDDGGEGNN

[1] = target: Acidic leucine-rich nuclear phosphoprotein 32 family Member A (human, UniProt P39687 1-249)
[2] = target: Actin, alpha skeletal muscle (human, UniProt P68133 3-377)
Alpha-actinin-1 = Alpha-actinin-1 (human, UniProt P12814 1-892)
Annexin A2 = Annexin A2 (human, UniProt P07355 2-339)
Cytochrome P450 26A1 = target: T3, Cytochrome P450 26A1 (human, UniProt O43174 1-497)
T3 sequence (looked up): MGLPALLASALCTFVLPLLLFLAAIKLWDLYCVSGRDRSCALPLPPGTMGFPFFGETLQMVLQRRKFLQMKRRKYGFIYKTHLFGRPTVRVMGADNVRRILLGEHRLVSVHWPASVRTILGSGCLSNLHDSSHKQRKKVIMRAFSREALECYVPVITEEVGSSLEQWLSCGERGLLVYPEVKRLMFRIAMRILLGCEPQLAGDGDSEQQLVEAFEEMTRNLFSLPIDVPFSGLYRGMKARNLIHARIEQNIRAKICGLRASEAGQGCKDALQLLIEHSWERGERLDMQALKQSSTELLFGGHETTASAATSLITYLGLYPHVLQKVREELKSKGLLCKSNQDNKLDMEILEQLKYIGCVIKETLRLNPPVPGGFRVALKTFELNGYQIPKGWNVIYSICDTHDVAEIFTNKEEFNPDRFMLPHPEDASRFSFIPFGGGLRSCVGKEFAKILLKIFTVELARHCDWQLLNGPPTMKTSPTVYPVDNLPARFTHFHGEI

[3] = target: T4, D-3-phosphoglycerate dehydrogenase (human, UniProt O43175 2-533)
T4 sequence (looked up): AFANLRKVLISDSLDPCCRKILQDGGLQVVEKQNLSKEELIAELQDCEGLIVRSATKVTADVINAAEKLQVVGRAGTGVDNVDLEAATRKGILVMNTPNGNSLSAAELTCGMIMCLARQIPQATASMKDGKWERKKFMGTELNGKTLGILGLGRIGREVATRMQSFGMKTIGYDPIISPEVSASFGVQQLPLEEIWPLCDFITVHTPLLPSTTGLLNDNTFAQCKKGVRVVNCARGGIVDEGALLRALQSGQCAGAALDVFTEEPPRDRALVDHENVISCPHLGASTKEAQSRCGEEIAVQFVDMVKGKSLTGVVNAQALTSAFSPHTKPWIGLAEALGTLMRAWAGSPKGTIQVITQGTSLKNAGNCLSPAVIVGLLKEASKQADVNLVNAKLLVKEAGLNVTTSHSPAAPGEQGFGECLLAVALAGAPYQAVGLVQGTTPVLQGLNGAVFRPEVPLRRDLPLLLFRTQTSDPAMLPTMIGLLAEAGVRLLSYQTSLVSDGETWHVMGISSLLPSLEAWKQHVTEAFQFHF

Isoform C of Lamin-A/C = target: T5, Isoform C of Lamin-A/C (human, UniProt P02545-2 1-572)
T5 sequence (looked up): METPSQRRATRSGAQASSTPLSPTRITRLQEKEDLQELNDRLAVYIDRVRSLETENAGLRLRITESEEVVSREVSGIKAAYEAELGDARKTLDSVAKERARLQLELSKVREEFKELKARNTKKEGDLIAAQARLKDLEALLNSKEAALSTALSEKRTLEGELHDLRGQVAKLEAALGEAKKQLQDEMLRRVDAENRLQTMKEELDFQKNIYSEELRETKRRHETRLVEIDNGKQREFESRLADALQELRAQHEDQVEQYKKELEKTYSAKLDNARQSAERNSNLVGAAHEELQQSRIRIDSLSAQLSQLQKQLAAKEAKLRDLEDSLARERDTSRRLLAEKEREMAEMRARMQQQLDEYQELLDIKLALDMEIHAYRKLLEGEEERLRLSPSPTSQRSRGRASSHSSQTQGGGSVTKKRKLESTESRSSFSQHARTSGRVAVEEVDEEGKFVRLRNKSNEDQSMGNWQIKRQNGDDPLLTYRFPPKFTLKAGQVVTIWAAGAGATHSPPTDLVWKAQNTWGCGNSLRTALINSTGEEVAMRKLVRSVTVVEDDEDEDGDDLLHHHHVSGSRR

Nucleolin = Nucleolin (human, UniProt P19338 2-710)
[4] = target: Serine/arginine-rich-splicing factor 1 (human, UniProt Q07955 2-248)
Thioredoxin = target: T6, Thioredoxin (human, UniProt P10599 2-105)
T6 sequence (looked up): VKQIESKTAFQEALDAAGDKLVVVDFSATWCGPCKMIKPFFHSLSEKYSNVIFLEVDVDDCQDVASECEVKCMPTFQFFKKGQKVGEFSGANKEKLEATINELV

Measured: binding result

Acidic leucine-rich nuclear phosphoprotein 32 family Member A, sequence (P39687 whole entry): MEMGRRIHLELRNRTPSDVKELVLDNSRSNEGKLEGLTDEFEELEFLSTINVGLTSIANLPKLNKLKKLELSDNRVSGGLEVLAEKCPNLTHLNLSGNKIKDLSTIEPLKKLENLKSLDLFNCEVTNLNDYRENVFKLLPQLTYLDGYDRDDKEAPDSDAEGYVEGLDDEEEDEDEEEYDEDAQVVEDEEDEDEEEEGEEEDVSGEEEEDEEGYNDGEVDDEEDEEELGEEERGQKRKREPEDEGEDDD
Alpha-actinin-1, sequence (P12814 whole entry): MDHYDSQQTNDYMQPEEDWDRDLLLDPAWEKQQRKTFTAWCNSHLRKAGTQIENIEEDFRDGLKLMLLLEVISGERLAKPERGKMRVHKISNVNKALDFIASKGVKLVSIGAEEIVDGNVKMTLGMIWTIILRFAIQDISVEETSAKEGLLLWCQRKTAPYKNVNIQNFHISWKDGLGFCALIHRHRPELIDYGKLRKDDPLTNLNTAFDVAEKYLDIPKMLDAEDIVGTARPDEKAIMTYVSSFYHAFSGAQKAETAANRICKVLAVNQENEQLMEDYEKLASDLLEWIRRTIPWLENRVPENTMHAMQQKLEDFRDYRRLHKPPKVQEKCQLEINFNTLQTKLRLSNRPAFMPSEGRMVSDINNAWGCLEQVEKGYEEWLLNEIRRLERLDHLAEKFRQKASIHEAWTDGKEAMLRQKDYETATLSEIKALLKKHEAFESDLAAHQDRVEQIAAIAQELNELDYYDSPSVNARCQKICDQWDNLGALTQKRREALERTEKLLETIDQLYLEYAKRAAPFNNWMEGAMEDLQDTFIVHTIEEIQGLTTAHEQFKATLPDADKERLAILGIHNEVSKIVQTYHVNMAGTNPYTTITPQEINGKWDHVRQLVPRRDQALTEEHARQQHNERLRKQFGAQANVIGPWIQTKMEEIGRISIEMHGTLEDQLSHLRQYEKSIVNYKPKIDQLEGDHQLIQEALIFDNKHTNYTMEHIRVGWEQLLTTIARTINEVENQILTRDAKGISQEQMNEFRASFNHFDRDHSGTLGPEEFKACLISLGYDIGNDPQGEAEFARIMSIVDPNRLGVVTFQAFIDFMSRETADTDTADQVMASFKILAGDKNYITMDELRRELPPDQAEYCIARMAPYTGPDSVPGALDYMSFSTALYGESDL
Nucleolin, sequence (P19338 2-710 limits assumed): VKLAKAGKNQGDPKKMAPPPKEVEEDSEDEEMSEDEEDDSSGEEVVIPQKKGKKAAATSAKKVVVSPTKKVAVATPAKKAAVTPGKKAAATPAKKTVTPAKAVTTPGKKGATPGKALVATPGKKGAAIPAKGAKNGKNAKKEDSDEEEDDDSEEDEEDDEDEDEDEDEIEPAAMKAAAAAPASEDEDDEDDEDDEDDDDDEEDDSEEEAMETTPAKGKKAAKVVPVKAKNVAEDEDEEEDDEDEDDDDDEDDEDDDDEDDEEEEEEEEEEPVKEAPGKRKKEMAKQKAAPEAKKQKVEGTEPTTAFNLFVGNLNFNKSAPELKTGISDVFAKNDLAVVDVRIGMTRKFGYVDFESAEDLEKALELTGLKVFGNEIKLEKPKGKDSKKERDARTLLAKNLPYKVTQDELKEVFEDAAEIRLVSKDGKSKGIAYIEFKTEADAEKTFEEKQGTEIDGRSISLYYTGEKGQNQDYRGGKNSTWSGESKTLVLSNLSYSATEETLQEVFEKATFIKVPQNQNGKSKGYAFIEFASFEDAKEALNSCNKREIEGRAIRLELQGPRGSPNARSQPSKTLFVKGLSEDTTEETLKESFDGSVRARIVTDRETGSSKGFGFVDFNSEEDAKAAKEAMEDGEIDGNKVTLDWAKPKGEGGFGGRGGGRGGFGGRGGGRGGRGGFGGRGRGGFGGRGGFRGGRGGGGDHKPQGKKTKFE
Serine/arginine-rich-splicing factor 1, sequence (Q07955 2-248 limits assumed): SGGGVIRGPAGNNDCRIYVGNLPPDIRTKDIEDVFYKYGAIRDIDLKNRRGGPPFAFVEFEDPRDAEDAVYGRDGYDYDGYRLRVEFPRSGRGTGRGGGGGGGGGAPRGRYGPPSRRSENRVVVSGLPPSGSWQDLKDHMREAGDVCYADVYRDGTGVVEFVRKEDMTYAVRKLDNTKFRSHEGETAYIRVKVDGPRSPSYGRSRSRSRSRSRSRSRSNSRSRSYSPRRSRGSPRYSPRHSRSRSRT
Annexin A2, sequence (P07355 2-339 limits assumed): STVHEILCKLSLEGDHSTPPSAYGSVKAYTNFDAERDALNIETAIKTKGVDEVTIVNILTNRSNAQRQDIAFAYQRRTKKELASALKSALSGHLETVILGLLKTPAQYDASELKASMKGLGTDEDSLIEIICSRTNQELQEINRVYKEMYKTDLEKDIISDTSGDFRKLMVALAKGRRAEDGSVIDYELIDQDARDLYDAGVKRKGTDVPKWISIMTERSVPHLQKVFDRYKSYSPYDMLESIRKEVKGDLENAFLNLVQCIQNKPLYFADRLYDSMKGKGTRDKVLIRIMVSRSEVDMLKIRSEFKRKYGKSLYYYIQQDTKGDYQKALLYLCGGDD

B1: sPIF-1(15) (peptide)
peptide: MVRIKPGSANKPSDD
modifications: also: coupled to agarose support
notes: also called synthetic preimplantation factor
binds: all assays above
